Test results as given in publication PMC3089914, “Structural Basis of the 9-Fold Symmetry of Centrioles” (Cell, 2011).
Positions count from the first letter of the chain named. Numbers in names are those of the source. Values belong to the molecule of their own block, whether it stands above or below them.

Legend:
[1] = target: C. reinhardtii Bld12p crN-6HR fragment with F145E (crN-6HR[F145E]) (C. reinhardtii); assay: AUC; sedimentation velocity, 20°C, 150 μM protein; 20 mM Tris-HCl pH 7.5, 150 mM NaCl, 2 mM TCEP, 1% glycerol
[2] = target: C. reinhardtii Bld12p crN-6HR fragment with F145E (crN-6HR[F145E]) (C. reinhardtii); assay: SEC-MALS; S-200 analytical size exclusion column in line with light scattering and refractive index detectors; PBS with 1 mM DTT; samples of 2-4 mg/ml
[3] = target: C. reinhardtii Bld12p crN-6HR fragment with F145E (crN-6HR[F145E]) (C. reinhardtii); assay: dilution series monitored by CD at 222 nm; 20°C, samples reduced with DTT; fit to a two-state association (monomer-dimer) model; dimer to monomers
[4] = target: C. reinhardtii Bld12p N-terminal domain fragment (crN, residues 1-159) (C. reinhardtii); assay: ITC; dilution: crN at high concentration (1.0-1.6 mM) injected stepwise into buffer; 7°C; 12 mM HEPES pH 7, 100 mM NaCl, 0.7 mM βMe; dimer to monomers
[5] = target: the molecule itself; assay: dilution series monitored by CD at 222 nm; 20°C, samples reduced with DTT; fit to a two-state association (monomer-dimer) model; dimer to monomers
[6] = target: the molecule itself; assay: SEC-MALS; S-200 analytical size exclusion column in line with light scattering and refractive index detectors; PBS with 1 mM DTT; samples of 2-4 mg/ml
[7] = target: the molecule itself; assay: crystal structure; X-ray crystallography; sitting drop vapor diffusion
[8] = target: the molecule itself; assay: ITC; dilution: 1.6 mM ceN injected stepwise into buffer; 7°C; 20 mM sodium phosphate pH 7, 100 mM NaCl, 1 mM DTT; dimer to monomers
[9] = target: the molecule itself; assay: AUC; sedimentation velocity, 20°C, 300 μM protein; 20 mM Tris-HCl pH 7.5, 150 mM NaCl, 2 mM TCEP, 1% glycerol
[10] = target: the molecule itself; assay: AUC; sedimentation velocity, 20°C, 200 μM protein; 20 mM Tris-HCl pH 7.5, 150 mM NaCl, 2 mM TCEP, 1% glycerol

stoichiometry N [1]: 2
stoichiometry N [2]: 2
Kd [3]: 0.5 µM
Molecule: C. reinhardtii Bld12p crN-6HR fragment with F145E (crN-6HR[F145E]) (domain or fragment)

Kd [4]: 60 µM
Molecule: C. reinhardtii Bld12p N-terminal domain fragment (crN, residues 1-159) (domain or fragment)

B1: C. elegans SAS-6 coiled-coil domain fragment (ceCC, residues 181-408) (domain or fragment, UniProt O62479 181-408, looked up)
chain: SSQAVKLSTFYKSADELASLRQKCGDLEKQVEKLSGVKEEFEEMSEKFKELEDEVELVKEERENIRLLVEDKEDEVADLKQDTESLQKQLEENQEELEIVGNMLREEQGKVDQLQKRNVAHQKEIGKLRAELGTAQRNLEKADQLLKRNSQQQNQQSLDMRKLGELEADLKEKDSMVESLTETIGILRKELENEKLKAAENMDSFEKLSMENENLKEKIAHYRAQRFS
notes: SAS-6, C. elegans, Uniprot ID O62479, coiled coil, residues 181-408; Cloned in pET15b; His6-tag removed by thrombin; Monomer mass 27.4 kDa as printed; also called SAS-6 ceCC; source: recombinant, bacteria; not shown: His6, N-terminal, cleaved
Kd [5]: 0.9 ± 0.1 µM
stoichiometry N [6]: 2

B2: C. elegans SAS-6 N-terminal domain fragment with S123E (ceN[S123E]) (domain or fragment, UniProt O62479 1-168, looked up)
chain: MTSKIALFDQTLIASLLQPLSLNQPDFKAYKTKVKLKISEQRNETSGEKELKFEISRSDDFEFLFSETLNNEKYQILARDHDLTVDFDAFPKVIIQHLLCKNIVKNLEEDGEVDARKKAGYHEIADPGKPTEINIILDAEKNFCSFELFSKTPISKGKIFSIKLHAVR
notes: SAS-6, C. elegans, Uniprot ID O62479, N-terminal domain, residues 1-168, Ser123 mutated to glutamate; The crystallised variant; Two molecules in the asymmetric unit; also called ceN variant; ceN-dimer; source: recombinant, purified, crystallised; preparation of the variant not described
binding result [7]: binds

B3: C. elegans SAS-6 N-terminal domain fragment (ceN, residues 1-168) (domain or fragment, UniProt O62479 1-168, looked up)
chain: B2 chain with E123S
notes: SAS-6, C. elegans, Uniprot ID O62479, N-terminal domain, residues 1-168; Cloned in a modified pET15b vector; His6-tag removed by thrombin; source: E. coli BL21 gold (DE3), purified (Ni-NTA, size exclusion chromatography); not shown: His6, N-terminal, cleaved
Kd [8]: ~110 µM
stoichiometry N [9]: 2

B4: C. elegans SAS-6 N terminus plus coiled coil fragment (ceN-CC, residues 1-414) (domain or fragment, UniProt O62479 1-414, looked up)
chain: MTSKIALFDQTLIASLLQPLSLNQPDFKAYKTKVKLKISEQRNETSGEKELKFEISRSDDFEFLFSETLNNEKYQILARDHDLTVDFDAFPKVIIQHLLCKNIVKNLEEDGEVDARKKAGYHSIADPGKPTEINIILDAEKNFCSFELFSKTPISKGKIFSIKLHAVRGDHLISHLLKICSSQAVKLSTFYKSADELASLRQKCGDLEKQVEKLSGVKEEFEEMSEKFKELEDEVELVKEERENIRLLVEDKEDEVADLKQDTESLQKQLEENQEELEIVGNMLREEQGKVDQLQKRNVAHQKEIGKLRAELGTAQRNLEKADQLLKRNSQQQNQQSLDMRKLGELEADLKEKDSMVESLTETIGILRKELENEKLKAAENMDSFEKLSMENENLKEKIAHYRAQRFSPAPSGL
notes: SAS-6, C. elegans, Uniprot ID O62479, N terminus plus coiled coil, residues 1-414; A His6 form from pET30a was used for electron microscopy only; source: E. coli BL21 gold (DE3), purified (glutathione sepharose, eluted by prescission protease, dialysis); not shown: GST, N-terminal, cleaved
binding result [10]: binds

B5: C. elegans SAS-6 N terminus plus coiled coil fragment with I154E (ceN-CC[I154E]) (domain or fragment, UniProt O62479 1-414, looked up)
chain: B4 chain with I154E
notes: SAS-6, C. elegans, Uniprot ID O62479, residues 1-414, I154 exchanged by glutamate; source: preparation of the mutant not described
stoichiometry N [10]: 2
